The results in this text go back to patent US20240117018A1.

Assay [1] concerns the target HIV-1 93TH057 gp120 coree (HIV-1). In words: EBI PISA on PDB 3ngb (structure not solved in this filing).
The target of assay [2] is HIV-1 Env pseudovirus T251-18 (HIV-1). In words: cell-based or functional assay.
For assay [3], the target named is HIV-1 Env pseudovirus 231966.c02 (HIV-1). In words: cell-based or functional assay.
Assay [4] addresses HIV-1 Env pseudovirus 6540.v4.c1 (HIV-1). In words: cell-based or functional assay.
Assay [5] addresses HIV-1 Env pseudovirus BJOX025000.01.1 (HIV-1). Kind of assay: cell-based or functional assay.
Assay [6] deals with HIV-1 Env pseudovirus CNE5 (HIV-1). In words: cell-based or functional assay.
Assay [7] deals with HIV-1 Env pseudovirus 3301.v1.c24 (HIV-1). Kind of assay: cell-based or functional assay.
The target of assay [8] is HIV-1 Env pseudovirus 620345.c01 (HIV-1). In words: cell-based or functional assay.
The target of assay [9] is HIV-1 Env pseudovirus 3103.v3.c10 (HIV-1). In words: cell-based or functional assay.
Assay [10] has as its target HIV-1 Env pseudovirus T250-4 (HIV-1). In words: cell-based or functional assay.
The target in assay [11] is HIV-1 Env pseudovirus X1632_S2_B10 (HIV-1). In words: cell-based or functional assay.
Assay [12] deals with HIV-1 Env pseudovirus C1080.c03 (HIV-1). In words: cell-based or functional assay.
In assay [13] the target is HIV-1 Env pseudovirus X1193_c1 (HIV-1). In words: cell-based or functional assay.
Assay [14] deals with HIV-1 Env pseudovirus BJOX009000.02.4 (HIV-1). In words: cell-based or functional assay.
The target of assay [15] is HIV-1 Env pseudovirus R1166.c01 (HIV-1). In words: cell-based or functional assay.
Assay [16] addresses HIV-1 Env pseudovirus 89-F1_2_25 (HIV-1). Kind of assay: cell-based or functional assay.
Assay [17] addresses HIV-1 Env pseudovirus 6811.v7.c18 (HIV-1). In words: cell-based or functional assay.
The target of assay [18] is HIV-1 Env pseudovirus R3265.c06 (HIV-1). Kind of assay: cell-based or functional assay.
For assay [19], the target named is HIV-1 Env pseudovirus C4118.c09 (HIV-1). In words: cell-based or functional assay.
Assay [20] deals with HIV-1 Env pseudovirus 3016.v5.c45 (HIV-1). Kind of assay: cell-based or functional assay.
Assay [21] has as its target HIV-1 Env pseudovirus 235-47 (HIV-1). In words: cell-based or functional assay.
Assay [22] concerns the target HIV-1 Env pseudovirus P0402_c2_11 (HIV-1). Kind of assay: cell-based or functional assay.
The target of assay [23] is HIV-1 Env pseudovirus 6545.v4.c1 (HIV-1). In words: cell-based or functional assay.
Assay [24] has as its target HIV-1 Env pseudovirus T278-50 (HIV-1). Kind of assay: cell-based or functional assay.
Assay [25] concerns the target HIV-1 Env pseudovirus 6041.v3.c23 (HIV-1). Kind of assay: cell-based or functional assay.
The target in assay [26] is HIV-1 Env pseudovirus 3817.v2.c59 (HIV-1). In words: cell-based or functional assay.
The target in assay [27] is HIV-1 Env pseudovirus A07412M1.vrc12 (HIV-1). In words: cell-based or functional assay.
Assay [28] has as its target HIV-1 Env pseudovirus 6952.v1.c20 (HIV-1). Kind of assay: cell-based or functional assay.
In assay [29] the target is HIV-1 Env pseudovirus T255-34 (HIV-1). In words: cell-based or functional assay.
The target of assay [30] is HIV-1 Env pseudovirus C2101.c01 (HIV-1). In words: cell-based or functional assay.
In assay [31] the target is HIV-1 Env pseudovirus 231965.c01 (HIV-1). Kind of assay: cell-based or functional assay.
The target of assay [32] is HIV-1 Env pseudovirus X2088_c9 (HIV-1). Kind of assay: cell-based or functional assay.
Assay [33] concerns the target HIV-1 Env pseudovirus C3347.c11 (HIV-1). Kind of assay: cell-based or functional assay.
For assay [34], the target named is HIV-1 Env pseudovirus P1981_C5_3 (HIV-1). Kind of assay: cell-based or functional assay.
In assay [35] the target is HIV-1 Env pseudovirus BJOX015000.11.5 (HIV-1). In words: cell-based or functional assay.
Assay [36] deals with HIV-1 Env pseudovirus BJOX028000.10.3 (HIV-1). In words: cell-based or functional assay.
For assay [37], the target named is HIV-1 Env pseudovirus 0815.v3.c3 (HIV-1). Kind of assay: cell-based or functional assay.
Assay [38] concerns the target HIV-1 Env pseudovirus X1254_c3 (HIV-1). Kind of assay: cell-based or functional assay.
Assay [39] deals with HIV-1 Env pseudovirus 211-9 (HIV-1). In words: cell-based or functional assay.
In assay [40] the target is HIV-1 Env pseudovirus 6480.v4.c25 (HIV-1). In words: cell-based or functional assay.
Assay [41] concerns the target HIV-1 Env pseudovirus X2131_C1_B5 (HIV-1). In words: cell-based or functional assay.
Assay [42] has as its target HIV-1 Env pseudovirus R2184.c04 (HIV-1). In words: cell-based or functional assay.
For assay [43], the target named is HIV-1 Env pseudovirus BJOX010000.06.2 (HIV-1). In words: cell-based or functional assay.
Assay [44] has as its target monomeric HIV-1 Ba-L gp120 (HIV-1 Ba-L). In words: retention on the gp120 affinity column.
Assay [45] concerns the target HIV-1 93TH057 gp120 coree (HIV-1). Kind of assay: EBI PISA on PDB 5te6 (structure not solved in this filing).

In assay [1], VRC01 Fab registered a buried surface area, CDR H3 of 160 Å^2.
Regarding 45-46 (antibody), the IC50 (Titer in TZM.bl cells) is 5.26 µg/mL in assay [2]; 1.11 µg/mL in assay [3]; over 50 µg/mL in [4]; 0.18 µg/mL in assay [5]; 0.09 µg/mL in assay [6]; 0.01 µg/mL in assay [7]. Besides, the IC50 (Titer in TZM.bl cells) in assay [8] was over 30 µg/mL; in assay [9], 1.66 µg/mL; in assay [10] it was over 30 µg/mL; in assay [11] it was 0.07 µg/mL; in assay [12], 1.79 µg/mL; in assay [13] it was 0.04 µg/mL. Besides, the IC50 (Titer in TZM.bl cells) in assay [14] is 0.26 µg/mL; in [15] it was 1.68 µg/mL; in assay [16] it was over 50 µg/mL; in [17], 0.03 µg/mL; in assay [18], 0.04 µg/mL; in assay [19], 0.14 µg/mL. For the same substance, the IC50 (Titer in TZM.bl cells) in assay [20] is over 30 µg/mL; in [21], 0.3 µg/mL; in assay [22], 0.06 µg/mL; in assay [23] it was over 50 µg/mL; in assay [24], over 30 µg/mL; in [25] it was 0.01 µg/mL. Further, the IC50 (Titer in TZM.bl cells) is over 50 µg/mL in assay [26]; 0.03 µg/mL in assay [27]; 0.02 µg/mL in assay [28]; 0.23 µg/mL in assay [29]; 12.8 µg/mL in [30]; 0.1 µg/mL in [31]. The IC50 (Titer in TZM.bl cells) in assay [32] was over 50 µg/mL; in assay [33], 0.03 µg/mL; in [34], 0.05 µg/mL; in [35], 0.06 µg/mL; in assay [36] it was 0.07 µg/mL; in [37], 0.01 µg/mL. Further, the IC50 (Titer in TZM.bl cells) is 0.08 µg/mL in assay [38]; over 50 µg/mL in assay [39]; 0.02 µg/mL in [40]; 0.2 µg/mL in assay [41]; 0.03 µg/mL in [42]; 0.87 µg/mL in assay [43]. Also, the IC80 (Titer in TZM.bl cells) in assay [2] is 5.26 µg/mL; in assay [3], 11.4 µg/mL; in [4] it was over 50 µg/mL; in [5], 10 µg/mL; in assay [6], 0.41 µg/mL; in assay [7], 0.03 µg/mL. The IC80 (Titer in TZM.bl cells) in assay [8] was over 30 µg/mL; in [9], 6.57 µg/mL; in assay [10] it was over 30 µg/mL; in [11], over 50 µg/mL; in [12] it was 18 µg/mL; in assay [13], 0.16 µg/mL. The IC80 (Titer in TZM.bl cells) in assay [14] is 1.16 µg/mL; in assay [15], 1.68 µg/mL; in assay [16] it was over 50 µg/mL; in [17], 0.13 µg/mL; in assay [18], 0.44 µg/mL; in [19] it was 0.91 µg/mL. Also, the IC80 (Titer in TZM.bl cells) was over 30 µg/mL in assay [20]; 1.49 µg/mL in assay [21]; 0.26 µg/mL in assay [22]; over 50 µg/mL in assay [23]; over 30 µg/mL in assay [24]; 0.04 µg/mL in [25]. Moreover, the IC80 (Titer in TZM.bl cells) in [26] is over 50 µg/mL; in [27], 0.13 µg/mL; in assay [28] it was 0.07 µg/mL; in [29], 2.38 µg/mL; in assay [30] it was over 50 µg/mL; in [31] it was 0.1 µg/mL. Moreover, the IC80 (Titer in TZM.bl cells) was over 50 µg/mL in assay [32]; 0.18 µg/mL in assay [33]; 0.22 µg/mL in assay [34]; 0.38 µg/mL in [35]; over 50 µg/mL in assay [36]; 0.03 µg/mL in [37]. In addition, the IC80 (Titer in TZM.bl cells) in assay [38] was 0.08 µg/mL; in [39] it was over 50 µg/mL; in assay [40], 0.08 µg/mL; in assay [41] it was 0.9 µg/mL; in assay [42], 0.12 µg/mL; in assay [43], 6.37 µg/mL.
The substance Synagis (antibody) yielded a recovery on the gp120 affinity column in [44] of under 1%.
With N6 Fab, the buried surface area, CDR H3 in assay [45] came out at 123 Å^2.
